Assay results reported in patent publication US20160272683A1 (Novo Nordisk, published 2016).
Numbered stars: 1 amine (or outer) side, 2 acyl side, 3 side chain; on linkers, the order of the positions; unused ones are H or OH. * marks the point of attachment. C20 diacid = O=C(O)CCCCCCCCCCCCCCCCCCC(=O)*; C18 diacid = O=C(O)CCCCCCCCCCCCCCCCC(=O)*; C16 diacid = O=C(O)CCCCCCCCCCCCCCC(=O)*; γGlu = O=C(O)[C@H](CCC(=O)[*:2])N[*:1]; AEEA = NCCOCCOCC(=O)O

T1: human amylin 3(a) receptor (human calcitonin receptor co-expressed with RAMP-3) (human, UniProt P30988 25-474; O60896 24-148, limits assumed)
T1 sequence (looked up) 1: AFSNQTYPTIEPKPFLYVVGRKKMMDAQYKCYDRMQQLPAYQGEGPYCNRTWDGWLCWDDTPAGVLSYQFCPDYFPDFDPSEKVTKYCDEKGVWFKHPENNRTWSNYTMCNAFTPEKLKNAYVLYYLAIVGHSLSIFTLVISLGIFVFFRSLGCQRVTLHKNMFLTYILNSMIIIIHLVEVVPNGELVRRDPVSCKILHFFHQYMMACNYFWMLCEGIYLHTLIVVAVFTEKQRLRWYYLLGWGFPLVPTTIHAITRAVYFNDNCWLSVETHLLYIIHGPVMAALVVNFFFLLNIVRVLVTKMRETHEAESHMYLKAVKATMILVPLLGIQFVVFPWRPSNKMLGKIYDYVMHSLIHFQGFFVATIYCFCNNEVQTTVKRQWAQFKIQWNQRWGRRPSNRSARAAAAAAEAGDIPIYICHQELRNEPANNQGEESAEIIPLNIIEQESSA
T1 sequence (looked up) 2: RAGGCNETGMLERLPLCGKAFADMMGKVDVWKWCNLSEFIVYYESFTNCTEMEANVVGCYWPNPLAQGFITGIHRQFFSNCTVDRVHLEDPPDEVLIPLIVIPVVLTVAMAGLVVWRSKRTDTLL

T2: human calcitonin receptor (human, UniProt P30988 25-474)
T2 sequence (looked up): T1 sequence (looked up) 1

T3: human amylin 3(a) receptor (human calcitonin receptor co-expressed with RAMP-3) on BHK570/CRE-luc cells (human, UniProt P30988 25-474; O60896 24-148)
T3 sequence (looked up) 1: T1 sequence (looked up) 1
T3 sequence (looked up) 2: T1 sequence (looked up) 2

T4: human calcitonin receptor on BHK570/CRE-luc cells (human, UniProt P30988 25-474)
T4 sequence (looked up): T1 sequence (looked up) 1

B1: [N-terminal(C18 diacid), 5V, 9V, 20V]mimylin (peptide)
peptide: {C18 diacid}-EASEVSTAVLGRLSAELHEVATLPRTETGPESP-NH2
SMILES: CC(C)C[C@H](NC(=O)[C@H](CCCNC(=N)N)NC(=O)CNC(=O)[C@H](CC(C)C)NC(=O)[C@@H](NC(=O)[C@H](C)NC(=O)[C@@H](NC(=O)[C@H](CO)NC(=O)[C@@H](NC(=O)[C@H](CCC(=O)O)NC(=O)[C@H](CO)NC(=O)[C@H](C)NC(=O)[C@H](CCC(=O)O)NC(=O)CCCCCCCCCCCCCCCCC(=O)O)C(C)C)[C@@H](C)O)C(C)C)C(=O)N[C@@H](CO)C(=O)N[C@@H](C)C(=O)N[C@@H](CCC(=O)O)C(=O)N[C@@H](CC(C)C)C(=O)N[C@@H](Cc1c[nH]cn1)C(=O)N[C@@H](CCC(=O)O)C(=O)N[C@H](C(=O)N[C@@H](C)C(=O)N[C@H](C(=O)N[C@@H](CC(C)C)C(=O)N1CCC[C@H]1C(=O)N[C@@H](CCCNC(=N)N)C(=O)N[C@H](C(=O)N[C@@H](CCC(=O)O)C(=O)N[C@H](C(=O)NCC(=O)N1CCC[C@H]1C(=O)N[C@@H](CCC(=O)O)C(=O)N[C@@H](CO)C(=O)N1CCC[C@H]1C(N)=O)[C@@H](C)O)[C@@H](C)O)[C@@H](C)O)C(C)C
B2: [N-terminal(C20 diacid-gGlu-4xOEG), des1, 30S, 31G]mimylin (peptide)
peptide: {C20 diacid-γGlu-AEEA-AEEA-AEEA-AEEA}-ASELSTAALGRLSAELHELATLPRTETGSGSP-NH2
B3: [N-terminal(C20 diacid-gGlu), des1, 30S, 31G]mimylin (peptide)
peptide: {C20 diacid-γGlu}-ASELSTAALGRLSAELHELATLPRTETGSGSP-NH2
B4: [N-terminal(C20 diacid-gGlu-2xOEG), des1, 30S, 31G]mimylin (peptide)
peptide: {C20 diacid-γGlu-AEEA-AEEA}-ASELSTAALGRLSAELHELATLPRTETGSGSP-NH2
B5: [N-terminal(C20 diacid-gGlu-5xOEG), des1, 30S, 31G]mimylin (peptide)
peptide: {C20 diacid-γGlu-AEEA-AEEA-AEEA-AEEA-AEEA}-ASELSTAALGRLSAELHELATLPRTETGSGSP-NH2
B6: [N-terminal(C20 diacid-gGlu-OEG), des1, 30S, 31G]mimylin (peptide)
peptide: {C20 diacid-γGlu-AEEA}-ASELSTAALGRLSAELHELATLPRTETGSGSP-NH2
B7: [N-terminal(C18 diacid), des1, 30S, 31G]mimylin (peptide)
peptide: {C18 diacid}-ASELSTAALGRLSAELHELATLPRTETGSGSP-NH2
B8: [N-terminal(C18 diacid), 3P, 4P, 9V]mimylin (peptide)
peptide: {C18 diacid}-EAPPLSTAVLGRLSAELHELATLPRTETGPESP-NH2
SMILES: CC(C)C[C@H](NC(=O)[C@H](CCC(=O)O)NC(=O)[C@H](Cc1c[nH]cn1)NC(=O)[C@H](CC(C)C)NC(=O)[C@H](CCC(=O)O)NC(=O)[C@H](C)NC(=O)[C@H](CO)NC(=O)[C@H](CC(C)C)NC(=O)[C@H](CCCNC(=N)N)NC(=O)CNC(=O)[C@H](CC(C)C)NC(=O)[C@@H](NC(=O)[C@H](C)NC(=O)[C@@H](NC(=O)[C@H](CO)NC(=O)[C@H](CC(C)C)NC(=O)[C@@H]1CCCN1C(=O)[C@@H]1CCCN1C(=O)[C@H](C)NC(=O)[C@H](CCC(=O)O)NC(=O)CCCCCCCCCCCCCCCCC(=O)O)[C@@H](C)O)C(C)C)C(=O)N[C@@H](C)C(=O)N[C@H](C(=O)N[C@@H](CC(C)C)C(=O)N1CCC[C@H]1C(=O)N[C@@H](CCCNC(=N)N)C(=O)N[C@H](C(=O)N[C@@H](CCC(=O)O)C(=O)N[C@H](C(=O)NCC(=O)N1CCC[C@H]1C(=O)N[C@@H](CCC(=O)O)C(=O)N[C@@H](CO)C(=O)N1CCC[C@H]1C(N)=O)[C@@H](C)O)[C@@H](C)O)[C@@H](C)O
B9: [N-terminal(C16 diacid-gGlu), des1, 30S, 31G]mimylin (peptide)
peptide: {C16 diacid-γGlu}-ASELSTAALGRLSAELHELATLPRTETGSGSP-NH2
B10: [N-terminal(C18 diacid-gGlu), des1, 30S, 31G]mimylin (peptide)
peptide: {C18 diacid-γGlu}-ASELSTAALGRLSAELHELATLPRTETGSGSP-NH2
B11: [N-terminal(C18 diacid), 5I, 9I, 10I]mimylin (peptide)
peptide: {C18 diacid}-EASEISTAIIGRLSAELHELATLPRTETGPESP-NH2
SMILES: CC[C@H](C)[C@H](NC(=O)[C@H](C)NC(=O)[C@@H](NC(=O)[C@H](CO)NC(=O)[C@@H](NC(=O)[C@H](CCC(=O)O)NC(=O)[C@H](CO)NC(=O)[C@H](C)NC(=O)[C@H](CCC(=O)O)NC(=O)CCCCCCCCCCCCCCCCC(=O)O)[C@@H](C)CC)[C@@H](C)O)C(=O)N[C@H](C(=O)NCC(=O)N[C@@H](CCCNC(=N)N)C(=O)N[C@@H](CC(C)C)C(=O)N[C@@H](CO)C(=O)N[C@@H](C)C(=O)N[C@@H](CCC(=O)O)C(=O)N[C@@H](CC(C)C)C(=O)N[C@@H](Cc1c[nH]cn1)C(=O)N[C@@H](CCC(=O)O)C(=O)N[C@@H](CC(C)C)C(=O)N[C@@H](C)C(=O)N[C@H](C(=O)N[C@@H](CC(C)C)C(=O)N1CCC[C@H]1C(=O)N[C@@H](CCCNC(=N)N)C(=O)N[C@H](C(=O)N[C@@H](CCC(=O)O)C(=O)N[C@H](C(=O)NCC(=O)N1CCC[C@H]1C(=O)N[C@@H](CCC(=O)O)C(=O)N[C@@H](CO)C(=O)N1CCC[C@H]1C(N)=O)[C@@H](C)O)[C@@H](C)O)[C@@H](C)O)[C@@H](C)CC
B12: [N-terminal(C20 diacid-gGlu-3xOEG), des1, 30S, 31G]mimylin (peptide)
peptide: {C20 diacid-γGlu-AEEA-AEEA-AEEA}-ASELSTAALGRLSAELHELATLPRTETGSGSP-NH2
B13: [N-terminal(C18 diacid), 9V, 12K, 25K]mimylin (peptide)
peptide: {C18 diacid}-EASELSTAVLGKLSAELHELATLPKTETGPESP-NH2
SMILES: CC(C)C[C@H](NC(=O)[C@H](CCC(=O)O)NC(=O)[C@H](Cc1c[nH]cn1)NC(=O)[C@H](CC(C)C)NC(=O)[C@H](CCC(=O)O)NC(=O)[C@H](C)NC(=O)[C@H](CO)NC(=O)[C@H](CC(C)C)NC(=O)[C@H](CCCCN)NC(=O)CNC(=O)[C@H](CC(C)C)NC(=O)[C@@H](NC(=O)[C@H](C)NC(=O)[C@@H](NC(=O)[C@H](CO)NC(=O)[C@H](CC(C)C)NC(=O)[C@H](CCC(=O)O)NC(=O)[C@H](CO)NC(=O)[C@H](C)NC(=O)[C@H](CCC(=O)O)NC(=O)CCCCCCCCCCCCCCCCC(=O)O)[C@@H](C)O)C(C)C)C(=O)N[C@@H](C)C(=O)N[C@H](C(=O)N[C@@H](CC(C)C)C(=O)N1CCC[C@H]1C(=O)N[C@@H](CCCCN)C(=O)N[C@H](C(=O)N[C@@H](CCC(=O)O)C(=O)N[C@H](C(=O)NCC(=O)N1CCC[C@H]1C(=O)N[C@@H](CCC(=O)O)C(=O)N[C@@H](CO)C(=O)N1CCC[C@H]1C(N)=O)[C@@H](C)O)[C@@H](C)O)[C@@H](C)O
B14: [N-terminal(C18 diacid-gGlu), des1, 30S]mimylin (peptide)
peptide: {C18 diacid-γGlu}-ASELSTAALGRLSAELHELATLPRTETGSESP-NH2
SMILES: CC(C)C[C@H](NC(=O)[C@H](C)NC(=O)[C@H](C)NC(=O)[C@@H](NC(=O)[C@H](CO)NC(=O)[C@H](CC(C)C)NC(=O)[C@H](CCC(=O)O)NC(=O)[C@H](CO)NC(=O)[C@H](C)NC(=O)CC[C@H](NC(=O)CCCCCCCCCCCCCCCCC(=O)O)C(=O)O)[C@@H](C)O)C(=O)NCC(=O)N[C@@H](CCCNC(=N)N)C(=O)N[C@@H](CC(C)C)C(=O)N[C@@H](CO)C(=O)N[C@@H](C)C(=O)N[C@@H](CCC(=O)O)C(=O)N[C@@H](CC(C)C)C(=O)N[C@@H](Cc1c[nH]cn1)C(=O)N[C@@H](CCC(=O)O)C(=O)N[C@@H](CC(C)C)C(=O)N[C@@H](C)C(=O)N[C@H](C(=O)N[C@@H](CC(C)C)C(=O)N1CCC[C@H]1C(=O)N[C@@H](CCCNC(=N)N)C(=O)N[C@H](C(=O)N[C@@H](CCC(=O)O)C(=O)N[C@H](C(=O)NCC(=O)N[C@@H](CO)C(=O)N[C@@H](CCC(=O)O)C(=O)N[C@@H](CO)C(=O)N1CCC[C@H]1C(N)=O)[C@@H](C)O)[C@@H](C)O)[C@@H](C)O
B15: [N-terminal(C18 diacid), 30S, 31G]mimylin (peptide)
peptide: {C18 diacid}-EASELSTAALGRLSAELHELATLPRTETGSGSP-NH2
B16: [N-terminal(C20 diacid), 30S, 31G]mimylin (peptide)
peptide: {C20 diacid}-EASELSTAALGRLSAELHELATLPRTETGSGSP-NH2

target: T1, human amylin 3(a) receptor (human …); experiment: cell-based or functional assay

hAmylin-R funct. EC50 (pM)	Binder
23	B1
24	B2
13	B3
17	B4
15	B5
27	B6
18	B7
12	B8
18	B9
16	B10
10	B11
18	B12
16	B13

target: T2, human calcitonin receptor; experiment: cell-based or functional assay

hCTR funct. EC50 (pM)	Binder
54	B1
13	B2
14	B3
12	B4
10	B5
18	B6
17	B7
6	B8
15	B9
17	B10
5	B11
11	B12
8	B13

target: T3, human amylin 3(a) receptor (human …); experiment: cell-based or functional assay

hAmylin-R funct. EC50 (pM), tested with HSA [pM]	Binder
26	B14
39	B15
61	B16

target: T4, human calcitonin receptor on …; experiment: cell-based or functional assay

hCTR funct. EC50 (pM), tested with HSA [pM]	Binder
9	B14
19	B15
26	B16
